Assay results as given in publication PMC5472179 (Nature Communications, 2017).
Ends that are not written are not given here. * marks the point of attachment. FITC = O=C1OC2(c3ccc(O)cc3Oc3cc(O)ccc32)c2ccc(NC(=S)*)cc21

B2: eVP30_(110–272) (domain or fragment)
chain: GSVEQQLNITAPKDSRLANPTADDFQQEEGPKITLLTLIKTAEHWARQDIRTIEDSKLRALLTLCAVMTRKFSKSQLSLLCETHLRREGLGQDQAEPVLEVYQRLHSDKGGSFEAALWQQWDRQSLIMFITAFLNIALQLPCESSAVVVSGLRTLVPQSDNEE

Experiments:
eVP30_(110–272) [1] = molecular target: B2; test: fluorescence polarisation; details: both partners purified
eVP30_(110–272) [2] = molecular target: B2; test: ITC; details: both partners purified
eVP30_(110–272) [3] = molecular target: B2; test: SEC-MALS; details: both partners purified
SEC-MALS = molecular target: the molecule itself; test: SEC-MALS

{FITC}-RTPTVAPPAPVYRDHS [FITC-eVP30BP]
binding result (eVP30_(110–272) [1]): binds

RTPTVAPPAPVYRDHS [eVP30BP (unlabelled)]
binding result (eVP30_(110–272) [1]): binds

B1: eNP_(600–739) (domain or fragment)
chain: RTPTVAPPAPVYRDHSEKKELPQDEQQDQDHTQEARNQDSDNTQSEHSFEEMYRHILRSQGPFDAVLYYHMMKDEPVVFSTSDGKEYTYPDSLEEEYPPWLTEKEAMNEENRFVTLDGQQFYWPVMNHKNKFMAILQHHQ
Kd (eVP30_(110–272) [2]): 3.75 µM | stoichiometry N (eVP30_(110–272) [2]): 0.8 | stoichiometry N (eVP30_(110–272) [3]): 1

B2
stoichiometry N (SEC-MALS): 2
